Results reported in patent US20260015399A1 (Boehringer Ingelheim, published 2026).
*1 amine or outer side, *2 acyl side, *3 side chain or, on linkers, in order; H or OH if unused. Side-chain parts run from the residue outwards. The star is where a group is joined. C18 diacid = O=C(O)CCCCCCCCCCCCCCCCC(=O)*; γGlu = O=C(O)[C@H](CCC(=O)[*:2])N[*:1]; Isovaleryl = CC(C)CC(=O)*; Ahx = NCCCCCC(=O)O

T1: human NPY2 receptor (human, UniProt P49146 1-381)
T1 construct: whole, on cells; also called hNPY2-R; hNPY2R
T1 sequence (looked up): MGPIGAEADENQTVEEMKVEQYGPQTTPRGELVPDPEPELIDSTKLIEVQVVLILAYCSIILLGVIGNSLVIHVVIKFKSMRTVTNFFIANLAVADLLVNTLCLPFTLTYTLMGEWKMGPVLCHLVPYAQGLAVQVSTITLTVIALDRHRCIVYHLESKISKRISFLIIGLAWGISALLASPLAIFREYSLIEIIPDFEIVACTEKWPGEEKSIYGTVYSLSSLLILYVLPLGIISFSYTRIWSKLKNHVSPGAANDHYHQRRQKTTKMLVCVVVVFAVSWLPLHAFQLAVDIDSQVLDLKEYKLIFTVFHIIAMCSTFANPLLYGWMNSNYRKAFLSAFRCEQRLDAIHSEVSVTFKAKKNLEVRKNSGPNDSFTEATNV


target: T1, human NPY2 receptor; test: RLB: displacement of 125I-PYY(1-36) from hNPY2R membranes

Ki | Binder
3.06 nM | Isovaleryl-APEK([Ahx-γGlu-C18 diacid])PEESATPEELQRYYVSLRHYYNWLTRQRY-NH2 (SMILES CC(C)CC(=O)N[C@@H](C)C(=O)N1CCC[C@H]1C(=O)N[C@@H](CCC(=O)O)C(=O)N[C@@H](CCCCNC(=O)CCCCCNC(=O)CC[C@H](NC(=O)CCCCCCCCCCCCCCCCC(=O)O)C(=O)O)C(=O)N1CCC[C@H]1C(=O)N[C@@H](CCC(=O)O)C(=O)N[C@@H](CCC(=O)O)C(=O)N[C@@H](CO)C(=O)N[C@@H](C)C(=O)N[C@H](C(=O)N1CCC[C@H]1C(=O)N[C@@H](CCC(=O)O)C(=O)N[C@@H](CCC(=O)O)C(=O)N[C@@H](CC(C)C)C(=O)N[C@@H](CCC(N)=O)C(=O)N[C@@H](CCCNC(=N)N)C(=O)N[C@@H](Cc1ccc(O)cc1)C(=O)N[C@@H](Cc1ccc(O)cc1)C(=O)N[C@H](C(=O)N[C@@H](CO)C(=O)N[C@@H](CC(C)C)C(=O)N[C@@H](CCCNC(=N)N)C(=O)N[C@@H](Cc1c[nH]cn1)C(=O)N[C@@H](Cc1ccc(O)cc1)C(=O)N[C@@H](Cc1ccc(O)cc1)C(=O)N[C@@H](CC(N)=O)C(=O)N[C@@H](Cc1c[nH]c2ccccc12)C(=O)N[C@@H](CC(C)C)C(=O)N[C@H](C(=O)N[C@@H](CCCNC(=N)N)C(=O)N[C@@H](CCC(N)=O)C(=O)N[C@@H](CCCNC(=N)N)C(=O)N[C@@H](Cc1ccc(O)cc1)C(N)=O)[C@@H](C)O)C(C)C)[C@@H](C)O) [Compound 96]
5.97 nM | Isovaleryl-APEK([Ahx-γGlu-C18 diacid])PEEDATQEELQRYYVSLRHYYNWLTRQRY-NH2 (SMILES CC(C)CC(=O)N[C@@H](C)C(=O)N1CCC[C@H]1C(=O)N[C@@H](CCC(=O)O)C(=O)N[C@@H](CCCCNC(=O)CCCCCNC(=O)CC[C@H](NC(=O)CCCCCCCCCCCCCCCCC(=O)O)C(=O)O)C(=O)N1CCC[C@H]1C(=O)N[C@@H](CCC(=O)O)C(=O)N[C@@H](CCC(=O)O)C(=O)N[C@@H](CC(=O)O)C(=O)N[C@@H](C)C(=O)N[C@H](C(=O)N[C@@H](CCC(N)=O)C(=O)N[C@@H](CCC(=O)O)C(=O)N[C@@H](CCC(=O)O)C(=O)N[C@@H](CC(C)C)C(=O)N[C@@H](CCC(N)=O)C(=O)N[C@@H](CCCNC(=N)N)C(=O)N[C@@H](Cc1ccc(O)cc1)C(=O)N[C@@H](Cc1ccc(O)cc1)C(=O)N[C@H](C(=O)N[C@@H](CO)C(=O)N[C@@H](CC(C)C)C(=O)N[C@@H](CCCNC(=N)N)C(=O)N[C@@H](Cc1c[nH]cn1)C(=O)N[C@@H](Cc1ccc(O)cc1)C(=O)N[C@@H](Cc1ccc(O)cc1)C(=O)N[C@@H](CC(N)=O)C(=O)N[C@@H](Cc1c[nH]c2ccccc12)C(=O)N[C@@H](CC(C)C)C(=O)N[C@H](C(=O)N[C@@H](CCCNC(=N)N)C(=O)N[C@@H](CCC(N)=O)C(=O)N[C@@H](CCCNC(=N)N)C(=O)N[C@@H](Cc1ccc(O)cc1)C(N)=O)[C@@H](C)O)C(C)C)[C@@H](C)O) [Compound 105]
4.23 nM | Isovaleryl-APEK([Ahx-γGlu-C18 diacid])PEEDATPEEIQRYYLSLRHYYNWLTRQRY-NH2 (SMILES CC[C@H](C)[C@H](NC(=O)[C@H](CCC(=O)O)NC(=O)[C@H](CCC(=O)O)NC(=O)[C@@H]1CCCN1C(=O)[C@@H](NC(=O)[C@H](C)NC(=O)[C@H](CC(=O)O)NC(=O)[C@H](CCC(=O)O)NC(=O)[C@H](CCC(=O)O)NC(=O)[C@@H]1CCCN1C(=O)[C@H](CCCCNC(=O)CCCCCNC(=O)CC[C@H](NC(=O)CCCCCCCCCCCCCCCCC(=O)O)C(=O)O)NC(=O)[C@H](CCC(=O)O)NC(=O)[C@@H]1CCCN1C(=O)[C@H](C)NC(=O)CC(C)C)[C@@H](C)O)C(=O)N[C@@H](CCC(N)=O)C(=O)N[C@@H](CCCNC(=N)N)C(=O)N[C@@H](Cc1ccc(O)cc1)C(=O)N[C@@H](Cc1ccc(O)cc1)C(=O)N[C@@H](CC(C)C)C(=O)N[C@@H](CO)C(=O)N[C@@H](CC(C)C)C(=O)N[C@@H](CCCNC(=N)N)C(=O)N[C@@H](Cc1c[nH]cn1)C(=O)N[C@@H](Cc1ccc(O)cc1)C(=O)N[C@@H](Cc1ccc(O)cc1)C(=O)N[C@@H](CC(N)=O)C(=O)N[C@@H](Cc1c[nH]c2ccccc12)C(=O)N[C@@H](CC(C)C)C(=O)N[C@H](C(=O)N[C@@H](CCCNC(=N)N)C(=O)N[C@@H](CCC(N)=O)C(=O)N[C@@H](CCCNC(=N)N)C(=O)N[C@@H](Cc1ccc(O)cc1)C(N)=O)[C@@H](C)O) [Compound 97]
7.15 nM | Isovaleryl-APEK([Ahx-γGlu-C18 diacid])PEEDATLEELQRYYVSLRHYYNWLTRQRY-NH2 (SMILES CC(C)CC(=O)N[C@@H](C)C(=O)N1CCC[C@H]1C(=O)N[C@@H](CCC(=O)O)C(=O)N[C@@H](CCCCNC(=O)CCCCCNC(=O)CC[C@H](NC(=O)CCCCCCCCCCCCCCCCC(=O)O)C(=O)O)C(=O)N1CCC[C@H]1C(=O)N[C@@H](CCC(=O)O)C(=O)N[C@@H](CCC(=O)O)C(=O)N[C@@H](CC(=O)O)C(=O)N[C@@H](C)C(=O)N[C@H](C(=O)N[C@@H](CC(C)C)C(=O)N[C@@H](CCC(=O)O)C(=O)N[C@@H](CCC(=O)O)C(=O)N[C@@H](CC(C)C)C(=O)N[C@@H](CCC(N)=O)C(=O)N[C@@H](CCCNC(=N)N)C(=O)N[C@@H](Cc1ccc(O)cc1)C(=O)N[C@@H](Cc1ccc(O)cc1)C(=O)N[C@H](C(=O)N[C@@H](CO)C(=O)N[C@@H](CC(C)C)C(=O)N[C@@H](CCCNC(=N)N)C(=O)N[C@@H](Cc1c[nH]cn1)C(=O)N[C@@H](Cc1ccc(O)cc1)C(=O)N[C@@H](Cc1ccc(O)cc1)C(=O)N[C@@H](CC(N)=O)C(=O)N[C@@H](Cc1c[nH]c2ccccc12)C(=O)N[C@@H](CC(C)C)C(=O)N[C@H](C(=O)N[C@@H](CCCNC(=N)N)C(=O)N[C@@H](CCC(N)=O)C(=O)N[C@@H](CCCNC(=N)N)C(=O)N[C@@H](Cc1ccc(O)cc1)C(N)=O)[C@@H](C)O)C(C)C)[C@@H](C)O) [Compound 102]
1.01 nM | Isovaleryl-APEK([Ahx-γGlu-C18 diacid])PEADATPEELQRYYIALRHYYNWLTRQRY-NH2 (SMILES CC[C@H](C)[C@H](NC(=O)[C@H](Cc1ccc(O)cc1)NC(=O)[C@H](Cc1ccc(O)cc1)NC(=O)[C@H](CCCNC(=N)N)NC(=O)[C@H](CCC(N)=O)NC(=O)[C@H](CC(C)C)NC(=O)[C@H](CCC(=O)O)NC(=O)[C@H](CCC(=O)O)NC(=O)[C@@H]1CCCN1C(=O)[C@@H](NC(=O)[C@H](C)NC(=O)[C@H](CC(=O)O)NC(=O)[C@H](C)NC(=O)[C@H](CCC(=O)O)NC(=O)[C@@H]1CCCN1C(=O)[C@H](CCCCNC(=O)CCCCCNC(=O)CC[C@H](NC(=O)CCCCCCCCCCCCCCCCC(=O)O)C(=O)O)NC(=O)[C@H](CCC(=O)O)NC(=O)[C@@H]1CCCN1C(=O)[C@H](C)NC(=O)CC(C)C)[C@@H](C)O)C(=O)N[C@@H](C)C(=O)N[C@@H](CC(C)C)C(=O)N[C@@H](CCCNC(=N)N)C(=O)N[C@@H](Cc1c[nH]cn1)C(=O)N[C@@H](Cc1ccc(O)cc1)C(=O)N[C@@H](Cc1ccc(O)cc1)C(=O)N[C@@H](CC(N)=O)C(=O)N[C@@H](Cc1c[nH]c2ccccc12)C(=O)N[C@@H](CC(C)C)C(=O)N[C@H](C(=O)N[C@@H](CCCNC(=N)N)C(=O)N[C@@H](CCC(N)=O)C(=O)N[C@@H](CCCNC(=N)N)C(=O)N[C@@H](Cc1ccc(O)cc1)C(N)=O)[C@@H](C)O) [Compound 100]
